Data: patent US20120122239A1

Experiments:
[1] = target: glycosylated human proBNP (HyTest, Turku, Finland; Catalog No. 8GOB2) (human); assay: sandwich CMIA, capture 15F11, analyte 0.0 pM (blank)
[2] = target: human NT-pro B-type natriuretic peptide (HyTest, Turku, Finland; Catalog No. 8NT1) (human); assay: as above
[3] = target: human pro B-type natriuretic peptide (HyTest, Turku, Finland; Catalog No. 8PRO8) (human); assay: as above
[4] = target: glycosylated human proBNP (HyTest, Turku, Finland; Catalog No. 8GOB2) (human); assay: sandwich CMIA, capture 15C4, analyte 0.0 pM (blank)
[5] = target: human NT-pro B-type natriuretic peptide (HyTest, Turku, Finland; Catalog No. 8NT1) (human); assay: as above
[6] = target: human pro B-type natriuretic peptide (HyTest, Turku, Finland; Catalog No. 8PRO8) (human); assay: as above
[7] = target: glycosylated human proBNP (HyTest, Turku, Finland; Catalog No. 8GOB2) (human); assay: sandwich CMIA, capture 15C4, analyte 43.3 pM
[8] = target: human NT-pro B-type natriuretic peptide (HyTest, Turku, Finland; Catalog No. 8NT1) (human); assay: sandwich CMIA, capture 15C4, analyte 43.3 pM
[9] = target: human pro B-type natriuretic peptide (HyTest, Turku, Finland; Catalog No. 8PRO8) (human); assay: sandwich CMIA, capture 15C4, analyte 43.3 pM
[10] = target: glycosylated human proBNP (HyTest, Turku, Finland; Catalog No. 8GOB2) (human); assay: sandwich CMIA, capture 15C4, 577.4 pM, against human NT-proBNP
[11] = target: human pro B-type natriuretic peptide (HyTest, Turku, Finland; Catalog No. 8PRO8) (human); assay: as above
[12] = target: glycosylated human proBNP (HyTest, Turku, Finland; Catalog No. 8GOB2) (human); assay: sandwich CMIA, capture 15C4, analyte 86.6 pM
[13] = target: human NT-pro B-type natriuretic peptide (HyTest, Turku, Finland; Catalog No. 8NT1) (human); assay: sandwich CMIA, capture 15C4, analyte 86.6 pM
[14] = target: human pro B-type natriuretic peptide (HyTest, Turku, Finland; Catalog No. 8PRO8) (human); assay: sandwich CMIA, capture 15C4, analyte 86.6 pM
[15] = target: glycosylated human proBNP (HyTest, Turku, Finland; Catalog No. 8GOB2) (human); assay: sandwich CMIA, capture 15F11, analyte 86.6 pM
[16] = target: human NT-pro B-type natriuretic peptide (HyTest, Turku, Finland; Catalog No. 8NT1) (human); assay: sandwich CMIA, capture 15F11, analyte 86.6 pM
[17] = target: human pro B-type natriuretic peptide (HyTest, Turku, Finland; Catalog No. 8PRO8) (human); assay: sandwich CMIA, capture 15F11, analyte 86.6 pM
[18] = target: glycosylated human proBNP (HyTest, Turku, Finland; Catalog No. 8GOB2) (human); assay: sandwich CMIA, capture 15C4, 288.7 pM, against human NT-proBNP
[19] = target: human pro B-type natriuretic peptide (HyTest, Turku, Finland; Catalog No. 8PRO8) (human); assay: as above
[20] = target: glycosylated human proBNP (HyTest, Turku, Finland; Catalog No. 8GOB2) (human); assay: sandwich CMIA, capture 15F11, analyte 288.7 pM
[21] = target: human NT-pro B-type natriuretic peptide (HyTest, Turku, Finland; Catalog No. 8NT1) (human); assay: sandwich CMIA, capture 15F11, analyte 288.7 pM
[22] = target: human pro B-type natriuretic peptide (HyTest, Turku, Finland; Catalog No. 8PRO8) (human); assay: sandwich CMIA, capture 15F11, analyte 288.7 pM
[23] = target: human pro B-type natriuretic peptide (HyTest, Turku, Finland; Catalog No. 8PRO8) (human); assay: sandwich CMIA, 15C4 (63-71) with 16F3 (13-20), against human NT-proBNP
[24] = target: glycosylated human proBNP (HyTest, Turku, Finland; Catalog No. 8GOB2) (human); assay: sandwich CMIA, capture 15F11, analyte 577.4 pM
[25] = target: human NT-pro B-type natriuretic peptide (HyTest, Turku, Finland; Catalog No. 8NT1) (human); assay: sandwich CMIA, capture 15F11, analyte 577.4 pM
[26] = target: human pro B-type natriuretic peptide (HyTest, Turku, Finland; Catalog No. 8PRO8) (human); assay: sandwich CMIA, capture 15F11, analyte 577.4 pM
[27] = target: glycosylated human proBNP (HyTest, Turku, Finland; Catalog No. 8GOB2) (human); assay: sandwich CMIA, capture 15F11, analyte 43.3 pM
[28] = target: human NT-pro B-type natriuretic peptide (HyTest, Turku, Finland; Catalog No. 8NT1) (human); assay: sandwich CMIA, capture 15F11, analyte 43.3 pM
[29] = target: human pro B-type natriuretic peptide (HyTest, Turku, Finland; Catalog No. 8PRO8) (human); assay: sandwich CMIA, capture 15F11, analyte 43.3 pM
[30] = target: glycosylated human proBNP (HyTest, Turku, Finland; Catalog No. 8GOB2) (human); assay: sandwich CMIA, capture 15C4, 86.6 pM, against human NT-proBNP
[31] = target: human pro B-type natriuretic peptide (HyTest, Turku, Finland; Catalog No. 8PRO8) (human); assay: as above
[32] = target: glycosylated human proBNP (HyTest, Turku, Finland; Catalog No. 8GOB2) (human); assay: sandwich CMIA, capture 15C4, analyte 288.7 pM
[33] = target: human NT-pro B-type natriuretic peptide (HyTest, Turku, Finland; Catalog No. 8NT1) (human); assay: sandwich CMIA, capture 15C4, analyte 288.7 pM
[34] = target: human pro B-type natriuretic peptide (HyTest, Turku, Finland; Catalog No. 8PRO8) (human); assay: sandwich CMIA, capture 15C4, analyte 288.7 pM
[35] = target: glycosylated human proBNP (HyTest, Turku, Finland; Catalog No. 8GOB2) (human); assay: sandwich CMIA, capture 15C4, 43.3 pM, against human NT-proBNP
[36] = target: human pro B-type natriuretic peptide (HyTest, Turku, Finland; Catalog No. 8PRO8) (human); assay: as above
[37] = target: glycosylated human proBNP (HyTest, Turku, Finland; Catalog No. 8GOB2) (human); assay: sandwich CMIA, capture 15C4, analyte 577.4 pM
[38] = target: human NT-pro B-type natriuretic peptide (HyTest, Turku, Finland; Catalog No. 8NT1) (human); assay: sandwich CMIA, capture 15C4, analyte 577.4 pM
[39] = target: human pro B-type natriuretic peptide (HyTest, Turku, Finland; Catalog No. 8PRO8) (human); assay: sandwich CMIA, capture 15C4, analyte 577.4 pM
[40] = target: glycosylated human proBNP (HyTest, Turku, Finland; Catalog No. 8GOB2) (human); assay: sandwich CMIA, capture 15F11, 43.3 pM, against human NT-proBNP
[41] = target: human pro B-type natriuretic peptide (HyTest, Turku, Finland; Catalog No. 8PRO8) (human); assay: as above
[42] = target: glycosylated human proBNP (HyTest, Turku, Finland; Catalog No. 8GOB2) (human); assay: sandwich CMIA, capture 15F11, 288.7 pM, against human NT-proBNP
[43] = target: human pro B-type natriuretic peptide (HyTest, Turku, Finland; Catalog No. 8PRO8) (human); assay: as above
[44] = target: human pro B-type natriuretic peptide (HyTest, Turku, Finland; Catalog No. 8PRO8) (human); assay: sandwich CMIA, capture 15F11, against human NT-proBNP
[45] = target: glycosylated human proBNP (HyTest, Turku, Finland; Catalog No. 8GOB2) (human); assay: sandwich CMIA, capture 15F11, 86.6 pM, against human NT-proBNP
[46] = target: human pro B-type natriuretic peptide (HyTest, Turku, Finland; Catalog No. 8PRO8) (human); assay: as above
[47] = target: glycosylated human proBNP (HyTest, Turku, Finland; Catalog No. 8GOB2) (human); assay: sandwich CMIA, capture 15F11, 577.4 pM, against human NT-proBNP
[48] = target: human pro B-type natriuretic peptide (HyTest, Turku, Finland; Catalog No. 8PRO8) (human); assay: as above

human NT-pro B-type natriuretic peptide (HyTest, Turku, Finland; Catalog No. 8NT1) (human), sequence (chain, as listed by the source): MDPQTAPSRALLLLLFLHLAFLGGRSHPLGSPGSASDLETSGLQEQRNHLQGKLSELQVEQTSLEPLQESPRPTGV
human pro B-type natriuretic peptide (HyTest, Turku, Finland; Catalog No. 8PRO8) (human), sequence (chain, as listed by the source): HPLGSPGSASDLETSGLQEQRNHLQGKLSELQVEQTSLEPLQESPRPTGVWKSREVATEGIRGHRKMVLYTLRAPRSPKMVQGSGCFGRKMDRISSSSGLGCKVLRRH

Substance	Analyte rlus [1]	Analyte rlus [2]	Analyte rlus [3]	Analyte rlus [4]	Analyte rlus [5]	Analyte rlus [6]	Analyte rlus [7]	Analyte rlus [8]	Analyte rlus [9]	Analyte rlus [12]	Analyte rlus [13]	Analyte rlus [14]	Analyte rlus [15]	Analyte rlus [16]	Analyte rlus [17]	Analyte rlus [20]	Analyte rlus [21]	Analyte rlus [22]	Analyte rlus [24]	Analyte rlus [25]	other results
anti-human NT-proBNP/anti-human proBNP labeled monoclonal antibody 16F3 (HyTest, Turku, Finland)	640 rlus	640 rlus	640 rlus	1040 rlus	1040 rlus	1040 rlus	691 rlus	11400 rlus	1990 rlus	861 rlus	26500 rlus	4060 rlus	587 rlus	592 rlus	621 rlus	643 rlus	696 rlus	720 rlus	635 rlus	631 rlus	% Cross-reactivity [10]: 0%; % Cross-reactivity [11]: 10.6%; % Cross-reactivity [18]: -0.2%; % Cross-reactivity [19]: 9.1%; % Cross-reactivity [23]: 10%; Analyte rlus [26]: 914 rlus; Analyte rlus [27]: 586 rlus; Analyte rlus [28]: 630 rlus; Analyte rlus [29]: 624 rlus; % Cross-reactivity [30]: -0.7%; % Cross-reactivity [31]: 11.9%; Analyte rlus [32]: 827 rlus; Analyte rlus [33]: 140000 rlus; Analyte rlus [34]: 13700 rlus; % Cross-reactivity [35]: -3.3%; % Cross-reactivity [36]: 9.2%; Analyte rlus [37]: 1090 rlus; Analyte rlus [38]: 320000 rlus; Analyte rlus [39]: 34700 rlus
anti-human NT-proBNP/anti-human proBNP labeled monoclonal antibody 24E11 (HyTest, Turku, Finland)	886 rlus	886 rlus	886 rlus	821 rlus	821 rlus	821 rlus	781 rlus	786 rlus	718 rlus	751 rlus	699 rlus	747 rlus	918 rlus	20800 rlus	938 rlus	906 rlus	124000 rlus	1090 rlus	892 rlus	357000 rlus	% Cross-reactivity [40]: -0.4%; % Cross-reactivity [41]: 0.3%; % Cross-reactivity [42]: 0%; % Cross-reactivity [43]: 0.2%; % Cross-reactivity [44]: < 1%; Analyte rlus [26]: 1240 rlus; Analyte rlus [27]: 863 rlus; Analyte rlus [28]: 7380 rlus; Analyte rlus [29]: 904 rlus; % Cross-reactivity [45]: 0.2%; % Cross-reactivity [46]: 0.3%; % Cross-reactivity [47]: 0%; % Cross-reactivity [48]: 0.1%; Analyte rlus [32]: 725 rlus; Analyte rlus [33]: 814 rlus; Analyte rlus [34]: 834 rlus; Analyte rlus [37]: 770 rlus; Analyte rlus [38]: 850 rlus; Analyte rlus [39]: 735 rlus
